This passage reports switch fluorescence ratio results from the supplement of paper PMC10126150.

This data set relates to ATP. The experiment in a line: switch fluorescence ratio, 500 uM ATP over buffer (Cy3 cluster intensity, sum of 5 cycles each) (fold (ratio)); higher = stronger signal-on switching upon ATP binding; sequences stand for … in TCGTCGGCAGCGTCAGATGTGTATAAGAGACAGTTTTTTTTTTTTTTTTTTTTTTTTT…TC. To be noted: aptamer strand: ATP DNA aptamer (quencher-CACCTGGGGGAGTATTGCGGAGGAAGG + anchor), 100 nM annealed; ATP concentration: 500 uM. The method, boiled down:
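Per cluster, summed Cy3 intensity from the target cycles was divided by that from the buffer cycles to give the fluorescence ratio, then averaged per switch-domain sequence. Clusters outside 100-1000 RFU were excluded. The Cy3-labelled switching-strand clusters, on a modified Illumina MiSeq flow-cell, were annealed to 100 nM quencher-labelled ATP aptamer and imaged in selection buffer, then after 15 min with 500 uM ATP at 22 °C, for five cycles with NaOH stripping and re-annealing between them.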

± gives the standard deviation of the averaged measurements.
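Further: ATP exposure 15 min at 22 °C before imaging.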

GCTATTGGGA: the switch fluorescence ratio was found to be 1.01 ± 0.022.

Turning to GCTATTTGTA, the switch fluorescence ratio came out at 1.01 ± 0.023.

In the case of GCTCAAGCCT, the switch fluorescence ratio came to 1.06 ± 0.028.

Consider GCTCAATCTA, for which the switch fluorescence ratio amounted to 1.01 ± 0.006.

As for GCTCATTTCG, the switch fluorescence ratio amounted to 1.02 ± 0.042.

Regarding GCTCCAATAA, the switch fluorescence ratio is 2.49 ± 0.047.

With GCTCCAATTT, the switch fluorescence ratio worked out at 1.07 ± 0.034.

With GCTCCGGCGG, the switch fluorescence ratio stood at 1.24 ± 0.045.

On to GCTCCGTGGG, for which the switch fluorescence ratio worked out at 1.93 ± 0.1.

On to GCTCCTGTTA, for which the switch fluorescence ratio amounted to 1.11 ± 0.027.

Take GCTCGAGATT: the switch fluorescence ratio was 1.026 ± 0.0027.

With GCTCGCACAG, the switch fluorescence ratio amounted to 1.321 ± 0.0081.

In the case of GCTCGGGGTG, the switch fluorescence ratio was determined as 0.986 ± 0.032.

On to GCTCGTACGT, for which the switch fluorescence ratio was 1.01 ± 0.031.

Consider GCTCGTCGGC, for which the switch fluorescence ratio is 0.9987 ± 0.0018.

GCTCGTTAAA: the switch fluorescence ratio is 1.04 ± 0.1.

Regarding GCTCGTTTGG, the switch fluorescence ratio was 0.9745 ± 0.0041.

Turning to GCTCGTTTTG, the switch fluorescence ratio amounted to 0.981 ± 0.043.

GCTCTAGTGG: the switch fluorescence ratio worked out at 1.01 ± 0.022.

On to GCTCTATAAT, for which the switch fluorescence ratio is 1.03 ± 0.0044.

For GCTCTATGAC, the switch fluorescence ratio came out at 1.08 ± 0.044.

As to GCTCTCACTT, the switch fluorescence ratio is 1.02 ± 0.043.

Take GCTCTGAGCT: the switch fluorescence ratio is 1.05 ± 0.086.

Regarding GCTCTGGGGA, the switch fluorescence ratio was determined as 1.07 ± 0.12.

For GCTCTGGGGT, the switch fluorescence ratio was 1.02 ± 0.033.

With GCTCTTAGCG, the switch fluorescence ratio is 1.03 ± 0.054.

In the case of GCTCTTGTCT, the switch fluorescence ratio worked out at 0.985 ± 0.061.

Take GCTCTTGTTC: the switch fluorescence ratio was determined as 0.9975 ± 0.0083.

Regarding GCTGAAAAGA, the switch fluorescence ratio is 0.97 ± 0.032.

Regarding GCTGAAAGGC, the switch fluorescence ratio was 1.09 ± 0.061.

In the case of GCTGAAAGGG, the switch fluorescence ratio amounted to 0.9903 ± 0.0067.

As to GCTGAAGTTC, the switch fluorescence ratio turned out to be 0.993 ± 0.025.

For GCTGACGGGA, the switch fluorescence ratio is 1.1 ± 0.015.

For the sequence GCTGAGGCTG, the switch fluorescence ratio is 1 ± 0.032.

For the sequence GCTGAGGGAA, the switch fluorescence ratio amounted to 1.01 ± 0.028.

Consider GCTGATAACG, for which the switch fluorescence ratio came to 1.01 ± 0.035.

As to GCTGATTTAT, the switch fluorescence ratio turned out to be 0.982 ± 0.018.

With GCTGCGAATT, the switch fluorescence ratio is 1.021 ± 0.01.

Take GCTGCGGCAG: the switch fluorescence ratio is 1.012 ± 0.0046.

Consider GCTGCGGGCT, for which the switch fluorescence ratio was found to be 1.18 ± 0.24.

In the case of GCTGCTGGTA, the switch fluorescence ratio worked out at 1.02 ± 0.024.

With GCTGCTGTTT, the switch fluorescence ratio was determined as 1.01 ± 0.0037.

As to GCTGCTTGCG, the switch fluorescence ratio turned out to be 1 ± 0.014.

Consider GCTGGAAAAT, for which the switch fluorescence ratio was 1 ± 0.013.

As for GCTGGACGTG, the switch fluorescence ratio is 0.9912 ± 0.0055.

As to GCTGGGGACT, the switch fluorescence ratio was found to be 0.996 ± 0.02.

Regarding GCTGGGGCAG, the switch fluorescence ratio stood at 1.016 ± 0.01.

With GCTGGGGGCC, the switch fluorescence ratio is 0.981 ± 0.028.

In the case of GCTGGGGGGG, the switch fluorescence ratio was found to be 1.02 ± 0.037.

On to GCTGGTCATG, for which the switch fluorescence ratio is 0.989 ± 0.018.

Turning to GCTGGTGCGA, the switch fluorescence ratio worked out at 1.005 ± 0.0099.

With GCTGGTGCTT, the switch fluorescence ratio is 0.974 ± 0.022.

Turning to GCTGGTTGA, the switch fluorescence ratio stood at 1.01 ± 0.014.

With GCTGTCCGGA, the switch fluorescence ratio was 1.048 ± 0.0054.

On to GCTGTGATA, for which the switch fluorescence ratio is 0.976 ± 0.019.

Regarding GCTGTGCACG, the switch fluorescence ratio is 1.02 ± 0.02.

For the sequence GCTGTGCGGG, the switch fluorescence ratio was determined as 0.95 ± 0.018.

With GCTGTGGGCA, the switch fluorescence ratio was found to be 0.977 ± 0.02.

On to GCTGTGTAGG, for which the switch fluorescence ratio came to 0.994 ± 0.013.

In the case of GCTGTTGCTG, the switch fluorescence ratio was found to be 1 ± 0.035.

As for GCTTAAATCT, the switch fluorescence ratio turned out to be 1.01 ± 0.029.

In the case of GCTTAATACT, the switch fluorescence ratio turned out to be 1.37 ± 0.054.

On to GCTTACGGGA, for which the switch fluorescence ratio worked out at 1.028 ± 0.0016.

As for GCTTAGAGGA, the switch fluorescence ratio is 1 ± 0.03.

Turning to GCTTATCTTT, the switch fluorescence ratio worked out at 0.978 ± 0.051.

Take GCTTATGAAG: the switch fluorescence ratio amounted to 1.02 ± 0.02.
